Test results published in the FLAb antibody collection.

Experiment: patients with anti-drug antibodies; higher = more immunogenic

Protein	patients with anti-drug antibodies [%]
unnamed (protein) chain 1: EVQLVESGGGLVKPGGSLRLSCAASGFTFSNYAMSWVRQTPEKRLEWVATISRSGSYSYFPDSVQGRFTISRDNAKNSLYLQMNSLRAEDTAVYYCARLGGYDEGDAMDSWGQGTTVTVSS chain 2: DIVMTQTPLSLSVTPGQPASISCKSSQSLLESDGKTYLNWYLQKPGQSPQLLIYLVSILDSGVPDRFSGSGSGTDFTLKISRVEAEDVGVYYCLQATHFPQTFGGGTKVEIK	17
unnamed (protein) chain 1: QVQLVQSGAEVKKPGASVKVSCKVSGYTLSDLSIHWVRQAPGKGLEWMGGFDPQDGETIYAQKFQGRVTMTEDTSTDTAYMELSSLKSEDTAVYYCATGSSSSWFDPWGQGTLVTVSS chain 2: DIQMTQSPSSVSASVGDRVTITCRASQGISSWLAWYQQKPGKAPKLLIYGASNLESGVPSRFSGSGSGTDFTLTISSLQPEDFANYYCQQANSFPWTFGQGTKVEIK	0.4
unnamed (protein) chain 1: QVQLQQSGAEVKKPGASVKVSCEASGYTFPSYVLHWVKQAPGQGLEWIGYINPYNDGTQYNEKFKGKATLTRDTSINTAYMELSRLRSDDTAVYYCARGFGGSYGFAYWGQGTLVTVSS chain 2: DIQLTQSPSSLSASVGDRVTMTCSASSSVSSSYLYWYQQKPGKAPKLWIYSTSNLASGVPARFSGSGSGTDFTLTISSLQPEDSASYFCHQWNRYPYTFGGGTRLEIK	10
unnamed (protein) chain 1: EVQLVESGGGLVQPGGSLRLSCAASGYSFTGYYIHWVRQAPGKGLEWVARVIPNAGGTSYNQKFKGRFTLSVDNSKNTAYLQMNSLRAEDTAVYYCAREGIYWWGQGTLVTVSS chain 2: DIQMTQSPSSLSASVGDRVTITCRSSQSLVHSNGNTFLHWYQQKPGKAPKLLIYTVSNRFSGVPSRFSGSGSGTDFTLTISSLQPEDFATYFCSQTTHVPWTFGQGTKVEIK	0
unnamed (protein) chain 1: QIQLQQSGPEVVKPGASVKISCKASGYTFTDYYITWVKQKPGQGLEWIGWIYPGSGNTKYNEKFKGKATLTVDTSSSTAFMQLSSLTSEDTAVYFCANYGNYWFAYWGQGTQVTVSA chain 2: DIVLTQSPASLAVSLGQRATISCKASQSVDFDGDSYMNWYQQKPGQPPKVLIYAASNLESGIPARFSGSGSGTDFTLNIHPVEEEDAATYYCQQSNEDPWTFGGGTKLEIK	35
unnamed (protein) chain 1: EVQLLESGGVLVQPGGSLRLSCAASGFTFSNFGMTWVRQAPGKGLEWVSGISGGGRDTYFADSVKGRFTISRDNSKNTLYLQMNSLKGEDTAVYYCVKWGNIYFDYWGQGTLVTVSS chain 2: DIQMTQSPSSLSASVGDSITITCRASLSINTFLNWYQQKPGKAPNLLIYAASSLHGGVPSRFSGSGSGTDFTLTIRTLQPEDFATYYCQQSSNTPFTFGPGTVVDFR	1.3
unnamed (protein) chain 1: QVQLQESGPGLVKPSQTLSLTCTVSGGSISSGDYFWSWIRQLPGKGLEWIGHIHNSGTTYYNPSLKSRVTISVDTSKKQFSLRLSSVTAADTAVYYCARDRGGDYYYGMDVWGQGTTVTVSS chain 2: EIVLTQSPGTLSLSPGERATLSCRASQGISRSYLAWYQQKPGQAPSLLIYGASSRATGIPDRFSGSGSGTDFTLTISRLEPEDFAVYYCQQFGSSPWTFGQGTKVEIK	0
unnamed (protein) chain 1: EVQLVESGGGLVQPGGSLRLSCAASGFTFSSYGMSWVRQAPGKGLELVASINSNGGSTYYPDSVKGRFTISRDNAKNSLYLQMNSLRAEDTAVYYCASGDYWGQGTTVTVSS chain 2: DIVMTQSPLSLPVTPGEPASISCRSSQSLVYSNGDTYLHWYLQKPGQSPQLLIYKVSNRFSGVPDRFSGSGSGTDFTLKISRVEAEDVGVYYCSQSTHVPWTFGQGTKVEIK	0
unnamed (protein) chain 1: QVQLQESGPGLVKPSETLSLTCTVSGYSITGGYLWNWIRQPPGKGLEWIGYISYDGTNNYKPSLKDRVTISRDTSKNQFSLKLSSVTAADTAVYYCARYGRVFFDYWGQGTLVTVSS chain 2: DIVMTQSPLSLPVTPGEPASISCRSSQSIVHSNGNTYLQWYLQKPGQSPQLLIYKVSNRLYGVPDRFSGSGSGTDFTLKISRVEAEDVGVYYCFQGSHVPWTFGQGTKVEIK	0
unnamed (protein) chain 1: QVQLVQSGAEVKKPGASVKVSCKASGYTFTRYGISWVRQAPGQGLEWMGWISTYSGNTNYAQKLQGRVTMTTDTSTSTAYMELRSLRSDDTAVYYCARRQLYFDYWGQGTLVTVSS chain 2: EIVMTQSPATLSVSPGERATLSCRASQSVSSNLAWFQQKPGQAPRPLIYDASTRATGVPARFSGSGSGTDFTLTISSLQSEDFAVYYCQQYDNWPLTFGGGTKVEIK	3
unnamed (protein) chain 1: EVQLVESGGGLVQPGGSLRLSCAASGFSLSNYYVTWVRQAPGKGLEWVGIIYGSDETAYATSAIGRFTISRDNSKNTLYLQMNSLRAEDTAVYYCARDDSSDWDAKFNLWGQGTLVTVSS chain 2: AIQMTQSPSSLSASVGDRVTITCQASQSINNELSWYQQKPGKAPKLLIYRASTLASGVPSRFSGSGSGTDFTLTISSLQPDDFATYYCQQGYSLRNIDNAFGGGTKVEIK	1.8
unnamed (protein) chain 1: QVQLVQPGAEVVKPGASVKLSCKTSGYTFTSNWMHWVKQAPGQGLEWIGEIDPSDSYTNYNQNFQGKAKLTVDKSTSTAYMEVSSLRSDDTAVYYCARGSNPYYYAMDYWGQGTSVTVSS chain 2: EIVLTQSPAIMSASPGERVTMTCSASSGVNYMHWYQQKPGTSPRRWIYDTSKLASGVPARFSGSGSGTDYSLTISSMEPEDAATYYCHQRGSYTFGGGTKLEIK	33
unnamed (protein) chain 1: QVQLVQSGAEVKKPGASVKVSCKVSGYTFTSYDINWVRQAPGKGLEWMGWIYPGDGSIKYNEKFKGRVTMTVDKSTDTAYMELSSLRSEDTAVYYCARRGEYGNYEGAMDYWGQGTLVTVSS chain 2: DIQMTQSPSSLSASVGDRVTITCKASQSVDYDGHSYMNWYQQKPGKAPKLLIYAASNLESGVPSRFSGSGSGTDFTLTISSLQPEDFATYYCQQSDENPLTFGGGTKVEIK	0.9
unnamed (protein) chain 1: QVQLVESGGGVVQPGRSLRLSCAASGFTFSVYGMNWVRQAPGKGLEWVAIIWYDGDNQYYADSVKGRFTISRDNSKNTLYLQMNGLRAEDTAVYYCARDLRTGPFDYWGQGTLVTVSS chain 2: EIVLTQSPDFQSVTPKEKVTITCRASQSIGSSLHWYQQKPDQSPKLLIKYASQSFSGVPSRFSGSGSGTDFTLTINSLEAEDAAAYYCHQSSSLPFTFGPGTKVDIK	0
unnamed (protein) chain 1: EVTLRESGPGLVKPTQTLTLTCTLYGFSLSTSDMGVDWIRQPPGKGLEWLAHIWWDDVKRYNPALKSRLTISKDTSKNQVVLKLTSVDPVDTATYYCARTVSSGYIYYAMDYWGQGTLVTVSS chain 2: DIQMTQSPSSLSASVGDRVTISCRASQDIRNYLNWYQQKPGKAPKLLIFYTSKLHSGVPSRFSGSGSGTDYTLTISSLQPEDIATYYCQQGNTLPLTFGGGTKVEIK	3
unnamed (protein) chain 1: EVQLVESGGGLVQPGGSLRLSCAASGYVFTDYGMNWVRQAPGKGLEWMGWINTYIGEPIYADSVKGRFTFSLDTSKSTAYLQMNSLRAEDTAVYYCARGYRSYAMDYWGQGTLVTVSS chain 2: DIQMTQSPSSLSASVGDRVTITCKASQNVGTNVAWYQQKPGKAPKALIYSASFLYSGVPYRFSGSGSGTDFTLTISSLQPEDFATYYCQQYNIYPLTFGQGTKVEIK	8
unnamed (protein) chain 1: QVQLVQSGAEVKKPGSSVKVSCKASGYTFTSYRMHWVRQAPGQGLEWIGYINPSTGYTEYNQKFKDKATITADESTNTAYMELSSLRSEDTAVYYCARGGGVFDYWGQGTLVTVSS chain 2: DIQMTQSPSTLSASVGDRVTITCSASSSISYMHWYQQKPGKAPKLLIYTTSNLASGVPARFSGSGSGTEFTLTISSLQPDDFATYYCHQRSTYPLTFGQGTKVEVK	19
unnamed (protein) chain 1: QVQLVQSGAEVKKPGASVKVSCKASGYTFTNHYMHWVRQAPGQGLEWMGIINPISGSTSNAQKFQGRVTMTRDTSTSTVYMELSSLRSEDTAVYYCARDIVDAFDFWGQGTMVTVSS chain 2: AIQLTQSPSSLSASVGDRVTITCRASQGISSALVWYQQKPGKAPKLLIYDASSLESGVPSRFSGSGSGTDFTLTISSLQPEDFATYYCQQFNDYFTFGPGTKVDIK	5
unnamed (protein) chain 1: EVQLVESGGGLVEPGGSLRLSCAVSGFDFEKAWMSWVRQAPGQGLQWVARIKSTADGGTTSYAAPVEGRFIISRDDSRNMLYLQMNSLKTEDTAVYYCTSAHWGQGTLVTVSS chain 2: SYELTQPPSVSVSPGQTARITCSGEALPMQFAHWYQQRPGKAPVIVVYKDSERPSGVPERFSGSSSGTTATLTITGVQAEDEADYYCQSPDSTNTYEVFGGGTKLTVL	0
